Measurements reported in patent US20100098696A1 (Eli Lilly, published 2010).
Like-named read-outs stand apart in the source and are kept apart here.

Experiments:
Human FGFR-3(IIIb) [1] = target: T1, Human FGFR-3(IIIb) (human, UniProt P22607-2 23-377, limits assumed); test: BiaCore 3000 SPR, room temperature
T1 construct: The construct in the BiaCore experiment is not described; it is probably recombinant ECD-Fc; also called b-splice form of human FGFR-3
T1 sequence (looked up): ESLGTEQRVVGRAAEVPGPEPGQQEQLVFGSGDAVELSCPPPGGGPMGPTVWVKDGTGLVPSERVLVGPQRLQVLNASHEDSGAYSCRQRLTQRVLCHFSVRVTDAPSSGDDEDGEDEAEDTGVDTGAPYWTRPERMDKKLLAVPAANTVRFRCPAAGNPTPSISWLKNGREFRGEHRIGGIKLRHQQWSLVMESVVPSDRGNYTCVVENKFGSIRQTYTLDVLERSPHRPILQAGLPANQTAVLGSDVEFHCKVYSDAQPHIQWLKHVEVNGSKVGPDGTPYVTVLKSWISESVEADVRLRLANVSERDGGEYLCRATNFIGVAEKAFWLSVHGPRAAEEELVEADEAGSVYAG

[2] = target: T2, FGFR-3(IIIb) or (IIIc) ECD (extracellular domain) Fc tagged soluble recombinant protein (human, UniProt P22607 23-375); test: ELISA blocking assay: FGFR-3 ECD-Fc (1 µg/ml) with antibody dilutions on FGF-1 coated plates; lower end of the range
T2 construct: extracellular domain; also called recombinant human FGFR-Fc; not shown: Fc tag
T2 sequence (looked up): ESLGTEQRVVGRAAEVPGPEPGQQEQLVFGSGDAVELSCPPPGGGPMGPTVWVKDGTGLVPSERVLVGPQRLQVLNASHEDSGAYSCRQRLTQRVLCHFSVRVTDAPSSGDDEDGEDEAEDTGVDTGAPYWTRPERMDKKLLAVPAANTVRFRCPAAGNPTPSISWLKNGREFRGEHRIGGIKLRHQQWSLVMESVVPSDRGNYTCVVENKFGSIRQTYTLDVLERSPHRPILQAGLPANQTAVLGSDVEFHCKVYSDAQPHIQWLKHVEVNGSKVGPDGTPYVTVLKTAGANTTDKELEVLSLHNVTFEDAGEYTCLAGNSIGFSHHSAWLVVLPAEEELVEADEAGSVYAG
Description: (§1) Wash plates 3 times with 0.2% Tween20/PBS. […] Blocking activities lead to decreased signals.

[3] = target: T3, FGFR-3(IIIb) truncate D3 (250-372)-Fc (human, UniProt P22607-2 250-372); test: Mesoscale binding assay and BIAcore
T3 construct: range 250-372; Homodimeric Fc fusion; not shown: human Fc tag of the pGS-Fc vector
T3 sequence (looked up): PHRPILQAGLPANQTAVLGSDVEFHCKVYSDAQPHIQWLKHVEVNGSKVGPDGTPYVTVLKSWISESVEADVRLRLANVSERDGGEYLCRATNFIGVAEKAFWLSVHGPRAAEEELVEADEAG

[4] = target: T4, FGFR-3(IIIb) truncate D1 (25-148)-Fc (human, UniProt P22607 25-148); test: Mesoscale binding assay and BIAcore
T4 construct: range 25-148; Homodimeric Fc fusion; not shown: human Fc tag of the pGS-Fc vector
T4 sequence: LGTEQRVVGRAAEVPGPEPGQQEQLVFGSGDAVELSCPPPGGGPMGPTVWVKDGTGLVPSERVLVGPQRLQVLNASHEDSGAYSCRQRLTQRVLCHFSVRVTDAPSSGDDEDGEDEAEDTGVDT

Human FGFR-3(IIIb) [5] = target: T1, Human FGFR-3(IIIb); test: BiaCore 3000 SPR, room temperature; remark: listed apart in the source
[6] = target: T2, FGFR-3(IIIb) or (IIIc) ECD …; test: ELISA blocking assay: FGFR-3 ECD-Fc (1 µg/ml) with antibody dilutions on FGF-1 coated plates; upper end of the range
Description: as §1

B1: Antibody 1 (antibody, human IgG1, lambda)
heavy: not shown
light: QSVLTQPPSLSVAPGKTATFTCGGNNIGDKSVHWYRQKPGQAPVLVMYLDTERPSGIPERMSGSNFGNTATLTITRVEAEDEADYYCQVWDSGSDHVVFGGGTKLTVLGQPKAAPSVTLFPPSSEELQANKATLVCLISDFYPGAVTVAWKADSSPVKAGVETTTPSKQSNNKYAASSYLSLTPEQWKSHRSYSCQVTHEGSTVEKTVAPAECS
notes: Human IgG1 from a naive human Fab phage library; It was ruthenium-labelled in the Mesoscale assay and Alexa Fluor-labelled in the internalisation assay; also called FGFR-3 antibody antagonist
Kd (Human FGFR-3(IIIb) [1]): 0.72 nM | IC50 [2]: ≥ 1 nM | binding result [3]: no binding (tested: 250-0.001 nM dilution series) | binding result [4]: no binding (tested: 250-0.001 nM dilution series) | Kd (Human FGFR-3(IIIb) [5]): 1 nM | IC50 [6]: ≤ 10 nM
